Target: vibrillin βγ-crystallin domain (Vibrio cholerae)
Experiment: SEC

Work on “vibrillin βγ-crystallin domain (domain or fragment)” yielded a stoichiometry N of 6.
